According to patent US20220017637A1 (Hoffmann-La Roche, published 2022):

Tests used:
[1] = target: T1, Her2 expressed on the cell surface of the human breast cancer cell line KPL-4 (human, UniProt P04626 23-1255); assay: flow cytometry (MFI PE) on KPL-4 cells; R-PE F(ab')2 goat anti-human IgG Fcgamma secondary
T1 construct: endogenous Her2 of KPL-4 cells stood in the assay; also called ErbB2; human epidermal growth factor receptor-2

[2] = target: T2, human CD28 on CHO cells (parental cell line CHO-k1 ATCC #CCL-61, modified to stably overexpress human CD28) (human, UniProt P10747 19-220); assay: flow cytometry (MFI PE) on CHOk1-huCD28 cells; R-PE F(ab')2 goat anti-human IgG Fcgamma secondary
T2 construct: The whole entry (with signal peptide) is named; also called CHOk1-huCD28; CHOk1 huCD28

[3] = target: T1, Her2 expressed on the cell surface of …; assay: flow cytometry (MFI PE); panel title on the sheet: Binding to human Her2, KPL4; R-PE F(ab')2 goat anti-human IgG Fcgamma secondary

- EC50 (read off the curve) [1]: 6 to 7 nM
- binding result [2]: binds
- EC50 (read off the curve) [3]: ~3 nM
B1: Molecule A: Her2 (pertuzumab CLC_WT)-CD28 (SA_Variant 8) 1+1 format (bispecific antibody, human IgG1, kappa, L234A L235A)
heavy 1: not shown
light 1: QVQLVQSGAEVKKPGASVKVSCKASGYTFTSYYIHWVRQAPGQGLEWIGSIYPGNVQTNYNEKFKDRATLTVDTSISTAYMELSRLRSDDTAVYFCTRSHYGLDFNFDVWGQGTTVTVSSASVAAPSVFIFPPSDEQLKSGTASVVCLLNNFYPREAKVQWKVDNALQSGNSQESVTEQDSKDSTYSLSSTLTLSKADYEKHKVYACEVTHQGLSSPVTKSFNRGEC
heavy 2: not shown
light 2: DIQMTQSPSSLSASVGDRVTITCKASQDVSTAVAWYQQKPGKAPKLLIYSASFRYTGVPSRFSGSRSGTDFTLTISSLQPEDFATYYCQQHYTTPPTFGQGTKVEIKRTVAAPSVFIFPPSDRKLKSGTASVVCLLNNFYPREAKVQWKVDNALQSGNSQESVTEQDSKDSTYSLSSTLTLSKADYEKHKVYACEVTHQGLSSPVTKSFNRGEC
notes: only the Fc knob chain carries PG-LALA; also called P1AF6741; Her2-CD28 (P1AF6741)
